According to PMC4790635, “A critical role of mevalonate for peptidoglycan synthesis in Staphylococcus aureus” (Scientific Reports, 2016):

Biological target: the molecule itself
Experiment: SEC; gel filtration analysis of S. aureus MvaA protein; conditions not told in the text (Supplementary Fig. 9)

B1: S. aureus MvaA protein (HMG-CoA reductase), His-tag fused recombinant wild-type (enzyme, Staphylococcus aureus (strain RN4220), UniProt Q9FD86 1-425, looked up)
chain: MQSLDKNFRHLSRQQKLQQLVDKQWLSEDQFDILLNHPLIDEEVANSLIENVIAQGALPVGLLPNIIVDDKAYVVPMMVEEPSVVAAASYGAKLVNQTGGFKTVSSERIMIGQIVFDGVDDTEKLSADIKALEKQIHKIADEAYPSIKARGGGYQRIAIDTFPEQQLLSLKVFVDTKDAMGANMLNTILEAITAFLKNESPQSDILMSILSNHATASVVKVQGEIDVKDLARGERTGEEVAKRMERASVLAQVDIHRAATHNKGVMNGIHAVVLATGNDTRGAEASAHAYASRDGQYRGIATWRYDQKRQRLIGTIEVPMTLAIVGGGTKVLPIAKASLELLNVDSAQELGHVVAAVGLAQNFAACRALVSEGIQQGHMSLQYKSLAIVVGAKGDEIAQVAEALKQEPRANTQVAERILQEIRQQ
notes: MvaA protein (HMG-CoA reductase) of Staphylococcus aureus RN4220; mvaA gene amplified by PCR from chromosomal DNA with primers FmvaA-His and RmvaA-His and ligated into pET28a in-frame with the N-terminal histidine tag; also called SaMvaA; WT MvaA; source: E. coli BL21(DE3)pLysS, purified (nickel-chelating resin, dialysis)
**Q.** Which “stoichiometry N” value does the source give for B1 here?
**A.** 2
